These results are taken from patent US6395275 (Scripps Research, dated 2002).

Read-outs that look alike come from different tables or passages of the source.

One may read the Kd as the free concentration of one partner at which half of the binding sites on the other are occupied at equilibrium, for simple one-to-one binding. What is called koff is the first-order rate constant of dissociation. The kon is the second-order rate constant of association.

In test [1] the target is gp120 glycoprotein of HIV-1 strain MN (HIV-1 strain MN, UniProt P05877 32-513, limits assumed). The test is described as follows: cell-based or functional assay.
The target of test [2] is T1, recombinant gp120 of HIV-1 strain IIIb (HIV-1 strain IIIb, UniProt P04578 33-511).
T1 construct: domain: gp120; also called IIIb-derived gp120; gp 120 (IIIB strain)
The test is described as follows: SPR BIAcore, gp120 on chip. For orientation: Surface plasmon resonance follows binding to a sensor surface in real time, without labels.
Text: (§1) As the mass of the gold chips increases due to the binding of the Fabs to the ligand, the refractive index of the chips increases indicating a coordinate increase in the increase of the mass. Measurements of the "on" rate are made in addition to the "off" rates, the latter of which occurs as the Fabs begin to dissociate from the ligand and the mass coordinately decreases, thereby allowing a measurement of the change of the refractive index. Briefly, the sensor chip was activated for immobilization with N-hydroxysuccinimide an N-ethyl-N'-(3-diethyl aminopropyl) carbodiimide. The proteins, MN-derived or IIIb-derived gp120, were coupled to the surface by injection of 50 ul of a 50 ug/ml sample. Excess activated esters were quenched with 15 ul ethanolamine, 1 M pH 8.5. Typically, 4000 resonance units were immobilized. Binding of Fab fragments to immobilized gp120 was studied by injection of Fab in a range of concentrations (0.5 to 10 ug/ml) at a flow rate of 5 ul/minute. The association was monitored as the increase in resonance units per unit time. Dissociation measurements were acquired following the end of the association phase but with a flow rate of 50 ul/minute. The binding surface was regenerated with HCl, 1M NaCl, pH 3 and remained active for 20–40 measurements. […] Equilibrium association and dissociation constants were deduced from the rate constants.

Test [3] concerns the target T1, recombinant gp120 of HIV-1 strain IIIb. The test is described as follows: SPR BIAcore, gp120 on chip. The source holds these as a separate data set.
The target is the same in test [4]. The test is described as follows: SPR BIAcore, gp120 on chip. The source holds these as a separate data set.
Text: as §1
The soluble composite Fabs were then analyzed for binding affinity to gp120 strain IIIB.
Test [5] has the same target. Nature of the test: SPR BIAcore, gp120 on chip (summary table).
Test [6] shares this target. The test is described as follows: SPR BIAcore, gp120 on chip. This is another data set of the same source.
Text: as §1
The soluble M556 series Fabs were then analyzed for binding affinity to gp120 (strain IIIB).
For test [7] the target is unchanged. Nature of the test: SPR BIAcore, gp120 on chip. This is another data set of the same source.
Text: as §1
The soluble A–D series Fabs were then analyzed for binding affinity to gp120 strain IIIB.
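Wherever Ka is given: fab fragments flowed at 0.5 to 10 ug/ml over immobilized gp120, resonance units tracked during association and dissociation, equilibrium constants derived from the rate constants.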

B1: Fab 3b9 (Fab, V domains shown)
VH: LEQSGAEVKKPGASVKVSCQASGYRFSNFTVHWVRQAPGQRFEWMGWINPYNGNKEFSAKFQDRVTFTADTSANTAYMELRSLRSADTAVYYCARVGPWRWDDSPQDNYYMDVWGKGTIVIVSS
VL: ELTQSPGTLSLSPGERATFSCRSSHSIRSRRVAWYQHKPGQAPRLVIHGVSNRASGISDRFSGSGSGTDFTLTITRVEPEDFALYYCQVYGASSYTFGQGTKLERKR
On to B1, for which, in test [1], the “IC50 (M^-1), syncytium neutralization assay, HIV-1 MN on CEM-SS cells” value (from here on “IC50”) amounted to 6.4e+09 M⁻¹ and the “Neutralization Titer (ng/ml), syncytium assay, HIV-1 MN” value (shortened to “Neutralization Titer (ng/ml)”) came out at 7.8 ng/mL.

B2: Fab 3b4 (Fab, V domains shown)
VH: LEQSGAEVKKPGASVKVSCQASGYRFSNYTLIWVRQAPGQRFEWMGWINPYNGNKEFSAKFQDRVTFTADTSANTAYMELRSLRSADTAVYYCARVGPWNWDSPQDNYYMDVWGKGTTVIVSS
VL: ELTQSPGTLSLSPGERATFSCRSSHSIRSRRVAWYQHKPGQAPRLVIHGVSNRASGISDRFSGSGSGTDFTLTITRVEPEDFALYYCQVYGASSYTFGQGTKLERKR
Take B2: in test [1], the “IC50” value amounted to 2.57e+09 M⁻¹ and the “Neutralization Titer (ng/ml)” value is 19.4 ng/mL.

B3: Fab H4L3-3 (Fab, V domains shown)
VH: LEQSGAEVKKPGASVKVSCQASGYRFSNFTVHWVRQAPGQRFEWMGWINPYNGNKEFSAKFQDRVTFTADTSANTAYMELRSLRSADTAVYYCARVGEWGWDDSPQDNYYMDVWGKGTTVIVSS
VL: ELTQSPGTLSLSPGERATFSCRSSHSIRSRRVAWYQHKPGQAPRLVIHGVSNRASGISDRFSGSGSGTDFTLTITRVEPEDFALYYCQVYGGSAYTFGQGTKLERK
With B3, in test [2], the “Fold Increase of Mutant Kd Compared to MT4 Kd” value (“Fold Increase” below) turned out to be 1.9 fold and the dissociation constant Kd was 3310 pM.

B4: composite Fab H101/L42-1 (Fab, V domains shown)
VH: LEQSGAEVKKPGASVKVSCQASGYRFSHFTVHWVRQAPGQRFEWHGWINPYNGNKEFSAKFQDRVTFTADTSANTAYMELRSLRSADTAVYYCARVGEWGWHQRRYDNYYMDVWGKGTTVIVSS
VL: ELTQSPGTLSLSPGERATFSCRSSHQLDGSRVAWYQHKPGQAPRLVIHGVSNRASGISDRFSGSGSGTDFTLTITRVEPEDFALYYCQQYGWPFYTFGQGTKLERKR
As for B4, in test [3], the koff is 1.74e-05 s⁻¹ and the association rate constant (kon) stood at 134000 M⁻¹ s⁻¹. In addition, in test [4], the “Fold Increase” value came to 48.5 fold, the Ka worked out at 7.7e+09 M⁻¹ and the equilibrium dissociation constant (Kd) was determined as 130 pM. In addition, the dissociation constant (Kd) in test [5] amounted to 130 pM.

B5: composite Fab H101/L42-16 (Fab, V domains shown)
VH: LEQSGAEVKKPGASVKVSCQASGYRFSHFTVHWVRQAPGQRFEWHGWINPYNGNKEFSAKFQDRVTFTADTSANTAYMELRSLRSADTAVYYCARVGEWGWHQRRYDNYYMDVWGKGTTVIVSS
VL: ELTQSPGTLSLSPGERATFSCRSSHQLDGSRVAWYQHKPGQAPRLVIHGVSNRASGISDRFSGSGSGTDFTLTITRVEPEDFALYYCQQYGWPFYTFGQGTKLERKR
Take B5: in test [3], the dissociation rate constant (koff) came to 1.19e-05 s⁻¹ and the on-rate (kon) stood at 69100 M⁻¹ s⁻¹. In test [4], the “Fold Increase” value amounted to 36.6 fold, the Ka was 5.81e+09 M⁻¹ and the Kd amounted to 172 pM. Moreover, in test [5], the Kd is 170 pM.

B6: Fab H4L3-2 (Fab, V domains shown)
VH: LEQSGAEVKKPGASVKVSCQASGYRFSNFTVHWVRQAPGQRFEWMGWINPYNGNKEFSAKFQDRVTFTADTSANTAYMELRSLRSADTAVYYCARVGEWGWDDSPQDNYYMDVWGKGTTVIVSS
VL: ELTQSPGTLSLSPGERATFSCRSSHSIRSRRVAWYQHKPGQAPRLVIHGVSNRASGISDRFSGSGSGTDFTLTITRVEPEDFALYYCQQYGWPFYTFGQGTKLERKR
Regarding B6, the Kd in test [5] was 138 pM. For the same molecule, in test [2], the “Fold Increase” value was 45.3 fold and the Kd came to 138 pM.

B7: Fab M556-10 (Fab, V domains shown)
VH: LEQSGAEVKKPGASVKVSCQASGYRFSNFTVHWVRQAPGQRFEWMGWINPYNGNKEFSAKFQDRVTFTADTSANTAYMELRSLRSADTAVYYCARVGEWGWHQRRYDNYYMDVWGKGTTVIVSS
VL: ELTQSPGTLSLSPGERATFSCRSSHSIRSRRVAWYQHKPGQAPRLVIHGVSNRASGISDRFSGSGSGTDFTLTITRVEPEDFALYYCQVYGASSYTFGQGTKLERKR
For the molecule B7, in test [6], the “Fold Increase” value came out at 69.5 fold and the Kd worked out at 90.6 pM. Besides, the dissociation constant Kd in test [5] worked out at 906 pM.

B8: Fab MT4 (Fab, V domains shown)
VH: LEQSGAEVKKPGASVKVSCQASGYRFSNFVIHWVRQAPGQRFEWMGWINPYNGNKEFSAKFQDRVTFTADTSANTAYMELRSLRSADTAVYYCARVGPYSWDDSPQDNYYMDVWGKGTTVIVSS
VL: ELTQSPGTLSLSPGERATFSCRSSHSIRSRRVAWYQHKPGQAPRLVIHGVSNRASGISDRFSGSGSGTDFTLTITRVEPEDFALYYCQVYGASSYTFGQGTKLERKR
notes: also called Fab 4; 4H (heavy chain)
As for B8, in test [1], the “IC50” value came to 1.69e+08 M⁻¹ and the “Neutralization Titer (ng/ml)” value was 296 ng/mL.

B9: Fab B (Fab, V domains shown)
VH: LEQSGAEVKKPGASVKVSCQASGYRFSNFTVHWVRQAPGQRFEWMGWINPYNGNKEFSAKFQDRVTFTADTSANTAYMELRSLRSADTAVYYCARVGEWGWDDSPQDNYYMDVWGKGTTVIVSS
VL: ELTQSPGTLSLSPGERATFSCRSSHTVYRDRVAWYQHKPGQAPRLVIHGVSNRASGISDRFSGSGSGTDFTLTITRVEPEDFALYYCQVYGASSYTFGQGTKLERKR
Take B9: in test [7], the “Fold Increase” value was found to be 5.7 fold and the Kd amounted to 1100 pM.

B10: Fab M556-16 (Fab, V domains shown)
VH: LEQSGAEVKKPGASVKVSCQASGYRFSNFTVHWVRQAPGQRFEWMGWINPYNGNKEFSAKFQDRVTFTADTSANTAYMELRSLRSADTAVYYCARVGEWGWDQVRYDNYYMDVWGKGTTVIVSS
VL: ELTQSPGTLSLSPGERATFSCRSSHSIRSRRVAWYQHKPGQAPRLVIHGVSNRASGISDRFSGSGSGTDFTLTITRVEPEDFALYYCQVYGASSYTFGQGTKLERKR
In the case of B10, the “Fold Increase” value in test [6] came out at 45.3 fold. In addition, the Kd in test [6] and in test [5] was 139 pM each time.

B11: Fab M556-7 (Fab, V domains shown)
VH: LEQSGAEVKKPGASVKVSCQASGYRFSNFTVHWVRQAPGQRFEWMGWINPYNGNKEFSAKFQDRVTFTADTSANTAYMELRSLRSADTAVYYCARVGEWGWEMRRFDNYYMDVWGKGTTVIVSS
VL: ELTQSPGTLSLSPGERATFSCRSSHSIRSRRVAWYQHKPGQAPRLVIHGVSNRASGISDRFSGSGSGTDFTLTITRVEPEDFALYYCQVYGASSYTFGQGTKLERKR
With B11, the “Fold Increase” value in test [6] was determined as 48.1 fold. In addition, the results for the Kd in test [6] and in test [5] were 131 pM and 130 pM, respectively.

B12: Fab A (Fab, V domains shown)
VH: LEQSGAEVKKPGASVKVSCQASGYRFSNFTVHWVRQAPGQRFEWMGWINPYNGNKEFSAKFQDRVTFTADTSANTAYMELRSLRSADTAVYYCARVGEWGWDDSPQDNYYMDVWGKGTTVIVSS
VL: ELTQSPGTLSLSPGERATFSCRSSHKEFGRRVAWYQHKPGQAPRLVIHGVSNRASGISDRFSGSGSGTDFTLTITRVEPEDFALYYCQVYGASSYTFGQGTKLERKR
On to B12, for which, in test [7], the “Fold Increase” value stood at 1.3 fold and the Kd was 4700 pM.

B13: Fab M556-3 (Fab, V domains shown)
VH: LEQSGAEVKKPGASVKVSCQASGYRFSNFTVHWVRQAPGQRFEWMGWINPYNGNKEFSAKFQDRVTFTADTSANTAYMELRSLRSADTAVYYCARVGEWGWEMFRYDNYYMDVWGKGTTVIVSS
VL: ELTQSPGTLSLSPGERATFSCRSSHSIRSRRVAWYQHKPGQAPRLVIHGVSNRASGISDRFSGSGSGTDFTLTITRVEPEDFALYYCQVYGASSYTFGQGTKLERKR
As for B13, in test [6], the “Fold Increase” value turned out to be 63 fold and the dissociation constant (Kd) is 101 pM. In addition, the dissociation constant Kd in test [5] is 100 pM.

B14: Fab M556-15 (Fab, V domains shown)
VH: LEQSGAEVKKPGASVKVSCQASGYRFSNFTVHWVRQAPGQRFEWMGWINPYNGNKEFSAKFQDRVTFTADTSANTAYMELRSLRSADTAVYYCARVGEWGWTQRRFDNYYMDVWGKGTTVIVSS
VL: ELTQSPGTLSLSPGERATFSCRSSHSIRSRRVAWYQHKPGQAPRLVIHGVSNRASGISDRFSGSGSGTDFTLTITRVEPEDFALYYCQVYGASSYTFGQGTKLERKR
Take B14: the “Fold Increase” value in test [6] came to 36.2 fold. The dissociation constant (Kd) in test [6] and in test [5] was 174 pM in each case.

B15: Fab M556-2 (Fab, V domains shown)
VH: LEQSGAEVKKPGASVKVSCQASGYRFSNFTVHWVRQAPGQRFEWMGWINPYNGNKEFSAKFQDRVTFTADTSANTAYMELRSLRSADTAVYYCARVGEWGWEQFRFDNYYMDVWGKGTTVIVSS
VL: ELTQSPGTLSLSPGERATFSCRSSHSIRSRRVAWYQHKPGQAPRLVIHGVSNRASGISDRFSGSGSGTDFTLTITRVEPEDFALYYCQVYGASSYTFGQGTKLERKR
For B15, in test [6], the “Fold Increase” value was 14.3 fold and the Kd is 439 pM. The dissociation constant (Kd) in test [5] came out at 439 pM.

B16: Fab D (Fab, V domains shown)
VH: LEQSGAEVKKPGASVKVSCQASGYRFSNFTVHWVRQAPGQRFEWMGWINPYNGNKEFSAKFQDRVTFTADTSANTAYMELRSLRSADTAVYYCARVGEWGWDDSPQDNYYMDVWGKGTTVIVSS
VL: ELTQSPGTLSLSPGERATFSCRSSHQLDGSRVAWYQHKPGQAPRLVIHGVSNRASGISDRFSGSGSGTDFTLTITRVEPEDFALYYCQVYGASSYTFGQGTKLERKR
With B16, the Kd in test [5] came to 220 pM. In addition, in test [7], the “Fold Increase” value worked out at 28.6 fold and the equilibrium dissociation constant (Kd) worked out at 220 pM.
